Kd data for 1 substance are collected here from article PMC4117760.

In data set [1] the test system is MBP-CYV VP3 (Culex Y virus (CYV)). The data set is described as follows: EMSA.
Data set [2] deals with MBP-DXV VP3 (Drosophila X virus (DXV)) (UniProt Q96724). The data set is described as follows: EMSA. In general terms: A gel shift assay detects complexes by their altered migration in electrophoresis.
Chain of UniProt Q96724 (Q96724 whole entry): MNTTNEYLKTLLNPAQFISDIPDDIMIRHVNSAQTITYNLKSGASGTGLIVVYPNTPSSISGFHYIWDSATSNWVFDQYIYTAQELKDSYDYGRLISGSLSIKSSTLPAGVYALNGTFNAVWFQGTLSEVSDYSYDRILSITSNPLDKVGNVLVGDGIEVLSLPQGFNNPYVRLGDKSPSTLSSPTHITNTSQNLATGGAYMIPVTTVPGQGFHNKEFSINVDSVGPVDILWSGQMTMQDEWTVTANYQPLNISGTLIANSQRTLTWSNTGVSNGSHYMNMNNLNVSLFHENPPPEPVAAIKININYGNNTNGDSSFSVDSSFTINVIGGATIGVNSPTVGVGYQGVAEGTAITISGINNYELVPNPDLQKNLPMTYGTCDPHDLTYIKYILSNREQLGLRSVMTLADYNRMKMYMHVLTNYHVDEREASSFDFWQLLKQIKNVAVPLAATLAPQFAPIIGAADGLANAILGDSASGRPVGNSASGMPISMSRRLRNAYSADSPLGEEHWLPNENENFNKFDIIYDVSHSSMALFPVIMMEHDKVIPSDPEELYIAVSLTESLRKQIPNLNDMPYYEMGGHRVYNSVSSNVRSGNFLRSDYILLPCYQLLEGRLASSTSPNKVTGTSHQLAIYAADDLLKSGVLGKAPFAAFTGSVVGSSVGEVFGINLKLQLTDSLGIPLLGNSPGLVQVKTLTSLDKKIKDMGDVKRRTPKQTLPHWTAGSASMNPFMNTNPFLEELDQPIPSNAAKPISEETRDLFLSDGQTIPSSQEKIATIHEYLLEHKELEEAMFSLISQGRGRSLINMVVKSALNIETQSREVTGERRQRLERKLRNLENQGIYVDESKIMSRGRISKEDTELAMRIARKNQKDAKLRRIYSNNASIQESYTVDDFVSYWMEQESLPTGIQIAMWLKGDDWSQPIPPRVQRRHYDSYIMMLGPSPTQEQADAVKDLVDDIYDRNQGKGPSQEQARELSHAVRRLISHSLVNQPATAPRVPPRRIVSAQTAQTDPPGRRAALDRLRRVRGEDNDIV

For orientation: Kd means the concentration at which binding is half-saturated. Read a low Kd as higher affinity. With 126-nt FLuc dsRNA, the Kd in data set [1] was found to be 0.116 µM; in data set [2], 0.166 µM.
